{"source": "the DeepSol protein solubility set", "data": [{"assay": "soluble on expression in E. coli; label from the status in PepcDB or PDB records", "values": [{"sequence": "MTELERHLLNALEQLQQDYMQRLNEWESAFVELQKMFSLTQRDNAMLNEQVMQLSQQVQHLSERTERLSQLYSENRRLEHHHHHH", "soluble on expression in E. coli": "not soluble"}, {"sequence": "GIPRNSRVDSDDFLWFEGIAFPTMGFRSETLRKVRDEFVIRDEDVIILTYPKSGTNWLAEILCLMHSKGDAKWIQSVPIWERSPWVESEIGYTALSETESPRLFSSHLPIQLFPKSFFSSKAKVIYLMRNPRDVLVSGYFFWKNMKFLKKPKSWEEYFEWFCQGTVLYGSWFDHIHGWMPMREEKNFLLLSYEELKQDTGRTIEKICQFLGKTLEPEELNLILKNSSFQSMKENKMSNYSLLSVDYVVDKTQLLRKGVSGDWKNHFTVAQAEDFDKLFQEKMADLPRELFPWE", "soluble on expression in E. coli": "soluble"}, {"sequence": "MGSDKIHHHHHHMPTGNELPINEGASALQMANTIFGPGVTVNTASYTGWSQSSGIYTNGDSVAPGVTPSDTGVILSTGRASHITQSNGDPNRSDSTSTNTPGPSNDPDFNAIAGFVGSNDASFLEVNFTPTTDVLTMQFTFASEEYPEYTGSVFNDIFGVWVNGALVASPVVNVTQINSVNQSENATLFNNNTDDDYNTEMDGFTVTLTLVMPVNINQPNDIKIGVADVADSAYDSNVLIAAGSIQGEFVAESDSITHLEGLTSVLDVLANDPTSGGIAFITHINGVEVNPGDSVTLSDGTIVTLLPSGELQIDPPATQTGLTSSETIHFTYTVDNGSGITDTAFVTVTAIPCFARGTMILTAHGEKPVETLVPGDRIATRDNGLQEIRWIGTRKVAAEGRFAPIAIEAGTFGMHRRLVVSPQHRVMLTHWMAEVMFGEDEVLVAAKDLVNDCSVRVLGPGDFDDGEVEYFHLLFDQHQIIFSDGLATESFLPGPTVMNDLDAAVQEEVLALFPDIDPDTKDGYGPAARLPLRAFEARAMLA", "soluble on expression in E. coli": "not soluble"}, {"sequence": "MSPLPIIEVMPKLLSGITNSPQLILKAAPGAGKSTYFPLQLLQAGGFHGKIIMLEPRRLAARNIARYLAQQLGEEVGQRVGYRVRGENRVSRATQLEIVTEGIMTRMLQNDPELDGVDVLIFDEFHERSIHADTALALALEVQSALREDLKIVVMSATLDQQALQNLLPQASYVESQGRGFPIEIRYQPLRSDEPLVTAMQRQIRHLLQHETGSLLAFLPGAASINQLTEQLSDLASEVEICPLYGQMEFAAQQRAIAPTAAGRRKVVLATNIAETSLTIEGIRIVLDSGLERSARFDLKTGITRLEQVRIAQSSAEQRAGRAGRLEPGICVRLYSEAQLKQQPWVPEPEMLHTDLAPLALELAQWGAQPSDLAWLNLPPSSAFAQAQQLLQRLGLLDARTQITAAGKEAHLLGVEPRIAAMLLSADRLGESALQSALALTVLLEEPERQVIDVQHSLHRWQQGRHPKQKLLIQRAQSLAHKLDTAFSLSSVDSAWLPLVACLAFPDRIAQQRGQQTGQFLLANGHGAWLAVEDRLSAADYLVALDLMRGQTQASQIFSALELDIHALERVLPALISRVEQVDWDEKAGRLSAEAQWRIDQLVLRREKLPEPDKQKMTQALLSYVRRKGLTVLQWSEDASEWLARARCAAEWLPEEAWPALDDETLLARLELWLEPYLAGVTSVKGLQSVSVLQALKHYLGWELSQQLDEWLPTHHLLPTGNHKKIRYQLGMEPTLSVRMQEVFGEQSSPRVAKGTRAVVMELLSPAQRPLQVTRDLASFWAGAYKEVQKEMKGRYPKHVWPDDPANHVATSKTKRQLNA", "soluble on expression in E. coli": "soluble"}, {"sequence": "MSLKFIEEVVVEEFLPTFRSLLAADLRERGLTQHEVAELLGVSQSAVSKYAHGDVTTDDEIAADDRVQELVERTGSGLATGNVSQVQALVEAEVLVRELSTSSDILAERHEAANPALADYDGDFTVHDADSEVRVREHVLSSVRRGVRMLERTSGFATQIPAVGANLVECTPEADTVEDVAGVPGRVLDVMGRTEIPAEPEFGVSAYVATVLLDARAAGVDAHAALNIAYSADTVAALADAGYAVVEFEPEGESTTDDHHIRDAVRDADAVDVLYQTGGYGVEPIVYVLAENAPDAVRMARGLEGHHHHHH", "soluble on expression in E. coli": "soluble"}, {"sequence": "MGSSHHHHHHSSGLVPRGSHMGSEGGPALFQSDMTFKIFIDGEVNGQKFTIVADGSSKFPHGDFNVHAVCETGKLPMSWKPICHLIQYGEPFFARYPDGISHFAQECFPEGLSIDRTVRFENDGTMTSHHTYELDDTCVVSRITVNCDGFQPDGPIMRDQLVDILPNETHMFPHGPNAVRQLAFIGFTTADGGLMMGHFDSKMTFNGSRAIEIPGPHFVTIITKQMRDTSDKRDHVCQREVAYAHSVPRITSAIGSDED", "soluble on expression in E. coli": "soluble"}, {"sequence": "SLKDELHKLSYLDANRILEERLTETRYFSLNSNEYKNFQTSNPNFLFAAVIDGHAGGTIADVARKSLGYYLKKELIEIGVNSKRGGCRERAIVSALKKAHLNFDNDLLNQSKDYFLNGTSKYARTGACSLSVLIDERNYYISNIGDSVGLLIKKHFYLPLNRIHNASEFNEKRKLLEEHPNEEDILVCKICTRDYKTVNNNNTYELCKTPFHLLSHHYDNCYVKGRLQPTRSFGDFHLKKKMFAYSVDGTRLFVPEPHSFPYISAEPELRVMKKHPDDQFIVLMSDGVYEFLNHAQVINVIKTYGASPERAAKELINRVLEAAAYSSGMTMKQLLNLDPSIRRNFYDDVSVVVIKLN", "soluble on expression in E. coli": "not soluble"}, {"sequence": "MGSDKIHHHHHHMFDDADDIDTETVEEWEASAEFGLLYTSGNTETESLKGKFTASRDVQNWRHKGVFDYYTSEQKDQDTGEMNETADRIFISAQSNYKFDPDSRDSLFVFGSYEEDEFSGFAYQATVATGYGARYRYDEDIYADYEIGPGYSRTKPVQVEGEPPVESDGSMILRLAGSLNWKISENSRFSALLSSEVGEDNTKSKAELSVSANINSALAMKVSLGANHNSHVADESIEKLDTETAVTLVYSF", "soluble on expression in E. coli": "not soluble"}, {"sequence": "MIIRIKHYGEVKIEDSKNLLLNLIENRIGIDNICNGKGTCGKCKVRFRQGVPEATSADLRYLSVEELEEGVRLACQVKPQKGMEIDVTLSNSFDRKNTVLEHHHHHH", "soluble on expression in E. coli": "not soluble"}, {"sequence": "MNMTDDLGGNILLLSGHPGSGKSTIAEALANLPGVPKVHFHSDDLWGYIKHGRIDPWLPQSHQQNRMIMQIAADVAGRYAKEGYFVILDGVVRPDWLPAFTALARPLHYIVLRTTAAEAIERCLDRGGDSLSDPLVVADLHSQFADLGAFEHHVLPVSGKDTDQALQSAINALQSGRFRIDASLEHHHHHH", "soluble on expression in E. coli": "soluble"}, {"sequence": "MKKTLILGATPETNRYAYLAAERLKSHGHEFIPVGRKKGEVLGKTIINERPVIEGVDTVTLYINPQNQLSEYNYILSLKPKRVIFNPGTENEELEEILSENGIEPVIGCTLVMLSAGT", "soluble on expression in E. coli": "not soluble"}, {"sequence": "VLIARRPEDKHQGGLWEFPGGKVEDGEPVRAALARELEEELGIRVERARPLIQVRHDYADKHVLLDVWEVDGFSGEAHGAEGQPLAWVEPRELADYEFPAANAPIVQAARLPAHYLITPDGLEPGELISGVRKAVEAGIRLIQLRAPNMFSPEYRDLAIDIQGLCAGKAQLMLKGPLEWLGDFPAAGWHLTSAQLRKYASAGRPFPEGRLLAASCHDAEELALAASMGVEFVTLSPVQPTESHPGEPALGWDKAAELIAGFNQPVYLLGGLGPQQAEQAWEHGAQGVAGIRAFWPGGL", "soluble on expression in E. coli": "not soluble"}, {"sequence": "SQSAEKFQGSHLLCPGCGHGIIVREVLNAVDGPIVLGNSTGCLEVCSAVYPHTSWDVPWIHIGFENGSTAISGVEAMYKALTNKGRYQGQKPKFVAFGGDGASYDIGLQFISGCMERGHDMTYICLDNENYANTGGQRSGSTPLGASTSTTPAGSVSFGKKEKKKDIVNIMASHGVPYVAQLSPNKWKDMNKKIKTALDTEGPCFINALSPCTTEWKFESNKTIELADMAVDSLMFPLFEIFNGRELKITYRPRNIIPVRDYLGAQKRFKHLFKKENEHIIEELQKDVNERWEYLQRREEAK", "soluble on expression in E. coli": "not soluble"}, {"sequence": "MVMATRVKNVGNWRIMPDATLAASYQAYKRCQNRRPDKAFTPHPAISAPMPDATLAASYQACKMCQNRVGRIRRSRRIRQLEHHHHHH", "soluble on expression in E. coli": "not soluble"}, {"sequence": "MGSDKIHHHHHHMRIFDAHCDALLKLWEDPAREYTDDPAIEANAVRLMEGGVRAQCFAIFVGPNIPFDQKFQVALQQAELFHEKILKKHPQFSFIERWDDLLTLDADQIGAILTLEGADPFGDDPTKLKTLYRLGVRSLGLTWNQANLCADGVGEPRGGGLTEWGKAVVSLNNEHHVLTDVSHLSERGFWDVIEYAQFPVATHSNAKAICKHRRNLTDAQLKALIEAGGFIGIVFHPHFLTGTDDASIDDVMKHIEHICSLGGQKHVGFGSDFDGIPCFVDGLEHAGRFQWFMDELLKRYDEELVRGFAWDNFLKATPISYV", "soluble on expression in E. coli": "not soluble"}, {"sequence": "SEGWAGRVRRHLAGDPARGPTMDVLAAELGVSVRTLRRRLADEGTDYETVVDEIREALAEALLATTTLTVAEVSERLGYSEPSAFARAFRRWKAMSPNEYRRSA", "soluble on expression in E. coli": "soluble"}, {"sequence": "MGSDKIHHHHHHMLYSFSRLVYRILTVVGVLDGRAAYKRRIQLTGRSTYIVSLPKEWVETWRLGRGSEVTLEVMPDGSLKIAPSASERPARRDRRVIDLRGKELDLSFVIKSVIASYLAGYDEVLLLFGDGSVDAVSKIRSIVESNILGFNVLEEGPGYIVFVSVVDHRSMEFSRALSRMARIAAEMIRDVARGLENGDRGLLDLVAERDQLVDKLYLYMARQMTMASSGRLPLKDLGVYSPAEIVHLFLAVKSIERVADHATILSVRVSASLGAGMSVENGLSSLVMEAAEGFSKSVEALIKADAGLAASIAPVLSEYRSRLESMTAQEFLRGGGSLLRYLVIDSMRRITGYSLDIAEAALDISAVREKAKSEGP", "soluble on expression in E. coli": "not soluble"}, {"sequence": "MGSDKIHHHHHHMIRISNKIKTLLAMLSFVQVTSGCDATVQDIIIDTDPGVEIGNNDYYTWCKETLSVIDKDLKISGTHSYYENQDRSQVSFIWGNIFLLYTYTEGISLSKSEWSDALMNCFLNFDNYWHPNYKGIAGYATLPTSAEKVPDRFYDENGWTAIGLCDAYLATQNNSYLEKAKGALAFSLSGEDNVLGGGIYFQETFVSLPVQKNTICSAVTMLSCMKLYEITQDRQYLDAAIRINDWTVENLLDKSDNLLWDAKMVADGSVNTQKWSYNAGFMIRSWLKMYQATKDEKYLSQAKATLASSEAKWYNSINGALNDPGYFAFSIIDSWFDMYDTDKNTVWLTKAFHAINFIHNKLRDGNGRYPEHWGTPTTSNLEKYDLRFSTVAAYMYMRAANYKRILND", "soluble on expression in E. coli": "not soluble"}, {"sequence": "MYIVIMGAGRIGTLVARMLESEGHDVAIIEMNRERAREISEYISGLVIEGDATDQKVLENANIKNANAFAALTGKDDANILACILAKHLNPNIMTILRITDPGKKKIFEDVKELKTYFDIVVSPEDIAANYIFRTLVTPGFNRVLLPREGAEIIQFQIDEDCEVAGKPVKELNLPKDSLIIAVYDEKGNLTIPSGDTIIPKKGQVIIFAKNSALQEVKKIMEKKKKEQ", "soluble on expression in E. coli": "soluble"}, {"sequence": "MSELDQLRQEAEQLKSQIREARKSANDTTLATVASNLEPIGRIQMRTRRTLRGHLAKIYAMHWASDSRNLVSASQDGKLIVWDSYTTNKVHAIPLRSSWVMTCAYAPSGSFVACGGLDNICSIYSLKTREGNVRVSRELPGHTGYLSCCRFLDDNQIVTSSGDMTCALWDIETGQQCTAFTGHTGDVMSLSLSPDFRTFISGACDASAKLWDIRDGMCKQTFPGHESDINAVAFFPSGNAFATGSDDATCRLFDIRADQELAMYSHDNIICGITSVAFSKSGRLLFAGYDDFNCNVWDSMRQERAGVLAGHDNRVSCLGVTEDGMAVCTGSWDSFLKIWN", "soluble on expression in E. coli": "soluble"}, {"sequence": "MIAPRLVSIIIPTLNEEDAIAPTLRQARRQEGPVEILVADGGSTDDTRSVAQARGATVLQAPRGRAPQMNHGADCSSGDILLFLHADTRLPPNGLSRIRRALAAPDAIAGTFRLRFDDPTPLLRFYAWCTRWPWIRLCFGDRGQFVERSAFEAVGGFPDWPLFEDLELAARLQGHGRFRFLDAAVTTSARRFRRHGPLRQQLLNLYLWGHYLWGTDPDLLASLYPDRLGPVDQQPRSLEHHHHHH", "soluble on expression in E. coli": "soluble"}]}]}
